In article PMC10240976:

T1: LIR[Sp] peptide
T1 chain: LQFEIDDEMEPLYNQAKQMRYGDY


Experiments:
Assay in all cases: ITC
[1] = target: GABARAP (purified, for ITC) (human)
[2] = target: GABARAPL1 (purified, for ITC)
[3] = target: GABARAPL2 (purified, for ITC) (human)
LC3B (purified, for ITC) = target: LC3B (purified, for ITC)
LC3C (purified, for ITC) = target: LC3C (purified, for ITC)
LIR[Sp] peptide = target: T1, LIR[Sp] peptide; conditions: chain shown with the change

Sequence of GABARAPL2 (purified, for ITC) (human) (P60520 1-116): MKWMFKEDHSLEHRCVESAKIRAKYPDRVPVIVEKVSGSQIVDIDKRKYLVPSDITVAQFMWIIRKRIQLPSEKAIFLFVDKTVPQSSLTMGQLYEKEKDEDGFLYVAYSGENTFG

Row | Kd [1] | Kd [2] | Kd [3] | Kd (LC3B (purified, for ITC)) | Kd (LC3C (purified, for ITC)) | Kd (LIR[Sp] peptide) | Binder
1 | > 132 µM | > 132 µM | > 132 µM | > 132 µM | 26.9 µM | – | DGTLIIDLPDSY [LIR(TP[T]) peptide]
2 | – | – | – | – | – | 0.629 µM | GABARAP (purified, for ITC) F62W (protein) MKFVYKEEHPFEKRRSEGEKIRKKYPDRVPVIVEKAPKARIGDLDKKKYLVPSDLTVGQFYWLIRKRIHLRAEDALFFFVNNVIPPTSATMGQLYQEHHEEDFFLYIAYSDESVYG
